Experimental data as given in article PMC11101322, “VvWRKY5 positively regulates wounding-induced anthocyanin accumulation in grape by interplaying with VvMYBA1 and promoting jasmonic acid biosynthesis”.

T1: VvMYBA1-HIS (Vitis vinifera, UniProt Q6L9M9 1-250)
T1 sequence: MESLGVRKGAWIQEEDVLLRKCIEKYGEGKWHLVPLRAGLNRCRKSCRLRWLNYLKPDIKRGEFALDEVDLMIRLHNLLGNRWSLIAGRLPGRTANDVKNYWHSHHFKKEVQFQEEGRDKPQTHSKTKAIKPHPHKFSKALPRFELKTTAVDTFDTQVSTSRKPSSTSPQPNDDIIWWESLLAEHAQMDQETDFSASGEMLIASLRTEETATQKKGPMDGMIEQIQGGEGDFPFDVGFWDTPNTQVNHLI

T2: VvWRKY5-HIS (Vitis vinifera, UniProt F6HUN4 7-329)
T2 sequence: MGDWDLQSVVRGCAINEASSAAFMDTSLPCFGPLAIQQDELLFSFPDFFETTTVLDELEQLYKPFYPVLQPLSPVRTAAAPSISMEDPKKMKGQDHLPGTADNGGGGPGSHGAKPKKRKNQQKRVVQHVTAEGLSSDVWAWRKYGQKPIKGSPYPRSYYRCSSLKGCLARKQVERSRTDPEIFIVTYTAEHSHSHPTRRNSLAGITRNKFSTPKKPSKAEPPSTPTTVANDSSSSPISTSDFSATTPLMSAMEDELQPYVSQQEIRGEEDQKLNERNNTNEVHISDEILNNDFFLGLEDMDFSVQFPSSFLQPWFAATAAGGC

B1: VvUFGT probe (dsDNA)
DNA 1: GGATGACAACCCCCATGCAGTTGCCACTCTCACAACCCCC
DNA 2: GGGGGTTGTGAGAGTGGCAACTGCATGGGGGTTGTCATCC
B2: VvLOX mutant probe (dsDNA)
DNA 1: ACCAGCCAATGGAAAATAGCGAAAATACCTAGTCTATTCC
DNA 2: GGAATAGACTAGGTATTTTCGCTATTTTCCATTGGCTGGT

Legend:
VvMYBA1-HIS = biological target: T1, VvMYBA1-HIS; assay: EMSA; LightShift Chemiluminescent EMSA system; buffer, salt, pH and temperature not stated; details: protein: recombinant; tags: His (pET-32a fusion); label: biotin; blunt
VvWRKY5-HIS = biological target: T2, VvWRKY5-HIS; assay: as above; details: protein: recombinant, tags: His (pET-32a fusion), blunt

Row | Binder | binding result (VvMYBA1-HIS) | binding result (VvWRKY5-HIS; label: biotin) | binding result (VvWRKY5-HIS)
1 | B1 | binds | no binding | –
2 | B2 | – | – | no binding
